In patent US20250152742A1, “COMPOSITIONS AND METHODS FOR NEUROLOGICAL DISEASES” (Trames Bio, Inc., priority 2022, published 2025):

System: engineered chimeric receptor SEQ ID NO: 33 and its mutants (human α7-nAChR ligand binding domain / human GlyRα1 ion pore domain) in Lenti-X 293T cells
Assay: YFP fluorescence quenching anion reporter plate reader assay (percent quench, EC50)
Assay type: cell-based
Conditions: for YFP fluorescence quenching using CNL001 (percent quench): receptor named in row; for YFP fluorescence quenching using Varenicline, 3 nM var: ligand Varenicline 3 nM; for YFP fluorescence quenching using Varenicline, 30 nM var: ligand Varenicline 30 nM; for YFP fluorescence quenching using Varenicline, 300 nM var: ligand Varenicline 300 nM; for YFP fluorescence quenching using Varenicline, 500 nM var: ligand Varenicline 500 nM; for YFP fluorescence quenching using Varenicline, 1 uM var: ligand Varenicline 1 uM
In short: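 Lenti-X 293T cells co-expressing an anion-quenchable YFP were transiently transfected with receptor DNA, then ligand was added in NaI-substituted buffer (pH 7.2) after 30 min at 37 °C. Fluorescence was read about 2 min; percent quench = mean of last 10 s over 15 s pre-ligand baseline.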

B1: CODA71: parental chimeric LGIC: human α7-nAChR ligand binding domain with GlyRα1 Cys-loop fused to human GlyRα1 ion pore domain (protein)
chain: MRCSPGGVWLALAASLLHVSLQGEFQRKLYKELVKNYNPLERPVANDSQPLTVYFSLSLLQIMDVDEKNQVLTTNIWLQMSWTDHYLQWNVSEYPGVKTVRFPDGQIWKPDILLYNSADERFDATFHTNVLVNSSGHCQYLPPGIFKSSCPMDLKNFPMDVQTCKLKFGSWSYGGWSLDLQMQEADISGYIPNGEWDLVGIPGKRSERFYECCKEPYPDVTFTVTMRRRMGYYLIQMYIPSLLIVILSWISFWINMDAAPARVGLGITTVLTMTTQSSGSRASLPKVSYVKAIDIWMAVCLLFVFSALLEYAAVNFVSRQHKELLRFRRKRRHHKSPMLNLFQEDEAGEGRFNFSAYGMGPACLQAKDGISVKGANNSNTTNPPPAPSKSPEEMRKLFIQRAKKIDKISRIGFPMAFLIFNMFYWIIYKIVRREDVHNQ
modifications: synthetic sequence of chimeric LGIC
YFP fluorescence quenching using CNL001 (percent quench) (1 nM CNL001, first column so headed): 3.727% | YFP fluorescence quenching using CNL001 (percent quench) (1 nM CNL001, second column so headed): 20.231% | YFP fluorescence quenching using TC-5619/Bradanicline (percent quench) (1 nM brd (TC-5619/Bradanicline)): 9.41% | YFP fluorescence quenching using TC-5619/Bradanicline (percent quench) (3 nM brd (TC-5619/Bradanicline)): 44.38% | YFP fluorescence quenching using CNL001 (percent quench) (10 nM CNL001, first column so headed): 81.096% | YFP fluorescence quenching using CNL001 (percent quench) (10 nM CNL001, second column so headed): 82.368% | YFP fluorescence quenching using TC-5619/Bradanicline (percent quench) (10 nM brd (TC-5619/Bradanicline)): 76.61% | YFP fluorescence quenching using TC-6683 (percent quench) (30 nM TC-6683): −14.43% | YFP fluorescence quenching using TC-5619/Bradanicline (percent quench) (30 nM brd (TC-5619/Bradanicline)): 70.23% | YFP fluorescence quenching using CNL001 (percent quench) (50 nM CNL001, first column so headed): 83.62% | YFP fluorescence quenching using CNL001 (percent quench) (50 nM CNL001, second column so headed): 84.482% | YFP fluorescence quenching using ABT-126 (percent quench) (50 nM abt (ABT-126)): −1.98% | YFP fluorescence quenching using CNL001 (percent quench) (100 nM CNL001, first column so headed): 84.297% | YFP fluorescence quenching using CNL001 (percent quench) (100 nM CNL001, second column so headed): 85.368% | YFP fluorescence quenching (percent quench) (100 nM CNL002): 49.61% | YFP fluorescence quenching using ABT-126 (percent quench) (100 nM abt (ABT-126)): 24.27% | YFP fluorescence quenching using AZD-0328 (percent quench) (100 nM azd0328): 73.59% | YFP fluorescence quenching using TC-5619/Bradanicline (percent quench) (100 nM brd (TC-5619/Bradanicline)): 78.62% | YFP fluorescence quenching using TC-6683 (percent quench) (300 nM TC-6683): −13.08% | YFP fluorescence quenching using ABT-126 (percent quench) (300 nM abt (ABT-126)): 56.8% | YFP fluorescence quenching using AZD-0328 (percent quench) (300 nM azd0328): 78.09% | YFP fluorescence quenching using TC-5619/Bradanicline (percent quench) (300 nM brd (TC-5619/Bradanicline)): 75.51% | YFP fluorescence quenching using ABT-126 (percent quench) (500 nM abt (ABT-126)): 76.28% | YFP fluorescence quenching using CNL001 (percent quench) (1 uM CNL001, first column so headed): 85.647% | YFP fluorescence quenching using CNL001 (percent quench) (1 uM CNL001, second column so headed): 86.358% | YFP fluorescence quenching (percent quench) (1 uM CNL002): 74.15% | YFP fluorescence quenching using ABT-126 (percent quench) (1 uM abt (ABT-126)): 73.16% | YFP fluorescence quenching using TC-6683 (percent quench) (3 uM TC-6683): −13.71% | YFP fluorescence quenching using ABT-126 (percent quench) (3 uM abt (ABT-126)): 70.98% | YFP fluorescence quenching using ABT-126 (percent quench) (10 uM abt (ABT-126)): 72.62% | YFP fluorescence quenching (percent quench) (10 uM ach (acetylcholine)): 15.61% | YFP fluorescence quenching (percent quench) (30 uM CNL002): 75.21% | YFP fluorescence quenching using TC-6683 (percent quench) (30 uM TC-6683): −14.02% | YFP fluorescence quenching using ABT-126 (percent quench) (30 uM abt (ABT-126)): 77.49% | YFP fluorescence quenching (percent quench) (30 uM ach (acetylcholine)): 63.31% | YFP fluorescence quenching using AZD-0328 (percent quench) (30 uM azd0328): 79.05% | YFP fluorescence quenching using ABT-126 (percent quench) (50 uM abt (ABT-126)): 77.96% | YFP fluorescence quenching (percent quench) (50 uM ach (acetylcholine)): 73.16% | YFP fluorescence quenching using TC-6683 (percent quench) (100 uM TC-6683): −8.77% | YFP fluorescence quenching using ABT-126 (percent quench) (100 uM abt (ABT-126)): 77.81% | YFP fluorescence quenching (percent quench) (100 uM ach (acetylcholine)): 74.94% | YFP fluorescence quenching (percent quench) (300 uM ach (acetylcholine)): 65.94% | YFP fluorescence quenching (percent quench) (500 uM ach (acetylcholine)): 62.78% | YFP fluorescence quenching (percent quench) (1 mM ach (acetylcholine)): 74.24% | YFP fluorescence quenching (percent quench) (3 mM ach (acetylcholine)): 76.27% | YFP fluorescence quenching (percent quench) (5 mM ach (acetylcholine)): 77.15% | YFP fluorescence quenching (percent quench) (10 mM ach (acetylcholine)): 77.96% | YFP fluorescence quenching using Facinicline, 30 nM fac (ligand Facinicline 30 nM): 53.42 | YFP fluorescence quenching using Facinicline, 100 nM fac (ligand Facinicline 100 nM): 83.6 | YFP fluorescence quenching using Facinicline, 300 nM fac (ligand Facinicline 300 nM): 77.44 | YFP fluorescence quenching using Facinicline, 30 uM fac (ligand Facinicline 30 uM): 79.62 | YFP fluorescence quenching using TC-6987, 1 uM tc6987 (ligand TC-6987 1 uM): 31.56 | YFP fluorescence quenching using TC-6987, 3 uM tc6987 (ligand TC-6987 3 uM): 31.82 | YFP fluorescence quenching using TC-6987, 5 uM tc6987 (ligand TC-6987 5 uM): 30.75 | YFP fluorescence quenching using TC-6987, 10 uM tc6987 (ligand TC-6987 10 uM): 56.68 | YFP fluorescence quenching using TC-6987, 30 uM tc6987 (ligand TC-6987 30 uM): 51.46 | YFP fluorescence quenching using TC-6987, 50 uM tc6987 (ligand TC-6987 50 uM): 61.26 | YFP fluorescence quenching using TC-6987, 100 uM tc6987 (ligand TC-6987 100 uM): 43.21 | YFP fluorescence quenching using TC-6987, 300 uM tc6987 (ligand TC-6987 300 uM): 7.79 | YFP fluorescence quenching using TC-6987, 500 uM tc6987 (ligand TC-6987 500 uM): 51.58 | YFP fluorescence quenching using Varenicline, 3 nM var (first column): −2.36 | YFP fluorescence quenching using Varenicline, 3 nM var (second column): −3.522 | YFP fluorescence quenching using Varenicline, 30 nM var (first column): −4.255 | YFP fluorescence quenching using Varenicline, 30 nM var (second column): −3.636 | YFP fluorescence quenching using Varenicline, 300 nM var (first column): 46.195 | YFP fluorescence quenching using Varenicline, 300 nM var (second column): 45.522 | YFP fluorescence quenching using Varenicline, 500 nM var (first column): 69.253 | YFP fluorescence quenching using Varenicline, 500 nM var (second column): 71.705 | YFP fluorescence quenching using Varenicline, 1 uM var (first column): 79.254 | YFP fluorescence quenching using Varenicline, 1 uM var (second column): 79.244
